Laboratory results: patent US20130071431A1, “Method for Preserving Polypeptides Using A Sugar and Polyethyleneimine” (Stabilitech Ltd., priority 2008, published 2013)

Assays:
[1] = Luciferase assay with luciferin reagent, freeze-dried with BSA (Example 10); format: biochemical
Protocol: Luciferase stock was purchased from Promega Corporation (code E1701) and consisted of 1 mg of purified protein at a concentration of 13.5 mg/ml, correlating to 2.13×10^−4M using an approximate molecular weight of 60 kDa. The stock was thawed and refrozen (untouched, without addition of any excipients) at −45° C. as 44 aliquots. These aliquots were subsequently used for all experiments.
Luciferin was purchased from Promega Corporation as a kit that also included ATP (code E1500). This kit shall henceforth be referred to as luciferin reagent and consisted of pairs of vials that required mixing before use. One vial contained a lyophilised powder and the other 10 ml of a frozen liquid. To produce stocks, these vials were mixed and then refrozen as 1 ml aliquots at −20° C. in standard 1.5 ml Eppendorf tubes. Vials and reconstituted luciferin reagent were stored at −20° C. in an opaque box and only removed under conditions of near-darkness. […]
The luciferase assay involved the mixing of various concentrations of luciferase with an undiluted aliquot of luciferin reagent in black opaque 96 well plates. The initial (linear) phase of this luminogenic reaction was then immediately quantified by a luminometer. As per the manufacturer's recommendation, luciferase samples were of a 100 μl volume and luminescence was initiated by addition of 100 μl of luciferin reagent. […]

[2] = Luciferase luminescence assay after freeze-drying (Example 4); format: biochemical; settings: freeze-dried in excipient of 1.092M sucrose, 0.0499M stachyose and 27 nM, 2.7 nM or 0.27 nM PEI
Protocol: The final concentrations of PEI and sugars were: • PEI: 27 nM, 2.7 nM or 0.27 nM • sucrose: 1.092 M, and • stachyose: 0.0499M.
All vials were set up in triplicate.
The vials contained a free-flowing freeze-dried powder. The powder was reconstituted by adding 1 ml PBS. […] Luciferase assay reagent was added to each well according to manufacturer's instructions and luminescence was read on a Synergy 2 luminometer.

Luciferase: luciferase enzyme purchased from Promega (code E1701 in Example 10)
lyoprotectant effects of sugar mix and PEI on luciferase activity ([1]; both added together before freeze-drying): synergistic | lyoprotectant contribution of excipient component on luciferase activity ([1]; sugar mix or PEI added after freeze-drying): wholly negates its contribution | thermal stability of luciferase (luminescence) [2]: improved thermal stability
